Measured values as given in patent publication US20110045003A1 (SYNOVEX, published 2011).
Substitutions are numbered along the chain they refer to.

Tests used:
Test in all cases: ELISA on biotinylated EC1 domain peptide captured on a Neutravidin plate, goat anti-mouse IgG, TMB, A450
[1] = target: T1, Cad-20 EC1 domain peptide (region overlapping G1-G33 of Cad-11 EC1) (UniProt Q9HBT6 60-92, conjugated to biotin)
T1 construct: domain: first 33 amino acids of the EC1 domain
T1 peptide (looked up): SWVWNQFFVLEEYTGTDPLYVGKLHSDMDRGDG
Description: (§1) The specificity of H1M1 and H14 anti-Cad-11 antibodies was tested further using an ELISA against the first 33 amino acids of the EC1 domains of Cad-11, Cad-7, Cad-8, Cad-20, Cad-24, Cad-9, Cad-18, and MN-Cad. Peptides corresponding to the region of Cad-7, Cad-8, Cad-20, Cad-24, Cad-9, Cad-18, MN-Cad that overlapped with the G1-G33 region of the Cad-11 EC1 domain were synthesized and conjugated to biotin. 100 μl of a 30 ng/ml solution of each of these peptides in PBS-Tween (0.05%) were incubated in each well of a 96-well Netravidin plate for 2-3 hrs at 4° C. and then washed twice with PBS-Tween (0.05%). Various concentrations of the anti-Cad-11 antibody were incubated in each well for 1 hr at 22° C. and then washed twice with PBS-Tween (0.05%). 100 μl of a 1/1000 dilution of a goat anti-mouse IgG secondary antibody were added to each well, incubated for 30 min at 22° C., and then washed twice with PBS-Tween (0.05%). 100 μl/well of room temperature TMB (3,3′,5,5′-tetramethylbenzidine) reagent was added to each well and color was allowed to develop for 5 min at 22° C.

[2] = target: T2, Cad-24 EC1 domain peptide (region overlapping G1-G33 of Cad-11 EC1) (UniProt Q86UP0 45-77, conjugated to biotin)
T2 construct: domain: first 33 amino acids of the EC1 domain
T2 peptide (looked up): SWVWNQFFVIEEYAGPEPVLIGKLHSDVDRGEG
Description: as §1

[3] = target: T3, Cad-7 EC1 domain peptide (region overlapping G1-G33 of Cad-11 EC1) (UniProt Q9ULB5 48-80, conjugated to biotin)
T3 construct: domain: first 33 amino acids of the EC1 domain
T3 peptide (looked up): T1 peptide (looked up) with T14M, T16S, M28V, R30K
Description: as §1

[4] = target: T4, Cad-9 EC1 domain peptide (region overlapping G1-G33 of Cad-11 EC1) (UniProt Q9ULB4 54-86, conjugated to biotin)
T4 construct: domain: first 33 amino acids of the EC1 domain
T4 peptide (looked up): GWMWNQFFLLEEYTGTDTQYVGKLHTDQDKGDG
Description: as §1

[5] = target: T5, Cad-18 EC1 domain peptide (region overlapping G1-G33 of Cad-11 EC1) (UniProt Q13634 54-86, conjugated to biotin)
T5 construct: domain: first 33 amino acids of the EC1 domain
T5 peptide (looked up): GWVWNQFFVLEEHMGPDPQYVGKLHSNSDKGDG
Description: as §1

Measured: binding result

B1: murine H1M1 monoclonal anti-Cad-11 EC1 antibody (hybridoma H1M1, ATCC PTA-9699) (antibody, V domains shown)
VH: EVQLQQSGPELVKPGASVKISCKASGYSFTGYFMNWVKQSHGKSLEWIGRINPYTGDTFYNQKFKGKATLTVDKSSSTAHMELLSLSSEDSAVYYCGRLGSRYWYFDVWGAGTTVTVSS
VL: DVLMTQTPLSLPVSLGDQASISCRSSQSIIHSNGNTYLEWYLQKPGQSPKLLIYKVSNRFSGVPDRFTGSGSGTDFTLKISRVEAEDLGVYYCFQGSHVPWTFGGGTKLEIK
modifications: Biotinylated when used as the labelled competitor in Example 14; the letters are unchanged.
notes: murine antibody raised against Peptide 4; also called SYN0012; SYN0012/H1M1
no binding: all assays above
